We go through seven molecules from patent US20160222124A1 (published 2016).

Experiment [1] deals with T1, human CD40 (cellular) (human, UniProt P25942 21-277). Briefly: flow cytometry; CD40-transfected HEK-293 cells. (Flow cytometry measures light scatter and fluorescence of single cells or particles in a stream.)
Experiment [2] addresses T1, human CD40 (cellular). The experiment can be described thus: flow cytometry; RAMOS cells; humanized per legend.
Target sequence in this assay (P25942 21-277): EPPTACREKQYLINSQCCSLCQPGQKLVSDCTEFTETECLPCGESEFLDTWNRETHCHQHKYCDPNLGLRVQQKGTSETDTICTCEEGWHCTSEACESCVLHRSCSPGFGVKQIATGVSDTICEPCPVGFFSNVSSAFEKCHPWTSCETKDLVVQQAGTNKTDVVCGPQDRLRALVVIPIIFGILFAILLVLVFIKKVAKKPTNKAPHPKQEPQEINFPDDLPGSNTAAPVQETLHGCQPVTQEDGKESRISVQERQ
The target of experiment [3] is T1, human CD40 (cellular). The experiment can be described thus: flow cytometry; CD40-transfected HEK-293 cells; humanized 19B10.
Experiment [4] deals with T1, human CD40 (cellular). Briefly: flow cytometry; CD40-transfected HEK-293 cells; humanized 10F2.
Experiment [5] addresses B cells Human (human, UniProt P25942 21-277). Briefly: flow cytometry, whole blood; human B cells.
For experiment [6], the target named is Platelets Human (human, UniProt P25942 21-277). Briefly: flow cytometry, whole blood; human platelets.
The target of experiment [7] is T2, B cells Cynomolgus (cynomolgus monkey, UniProt G7PG38 21-278).
T2 chain: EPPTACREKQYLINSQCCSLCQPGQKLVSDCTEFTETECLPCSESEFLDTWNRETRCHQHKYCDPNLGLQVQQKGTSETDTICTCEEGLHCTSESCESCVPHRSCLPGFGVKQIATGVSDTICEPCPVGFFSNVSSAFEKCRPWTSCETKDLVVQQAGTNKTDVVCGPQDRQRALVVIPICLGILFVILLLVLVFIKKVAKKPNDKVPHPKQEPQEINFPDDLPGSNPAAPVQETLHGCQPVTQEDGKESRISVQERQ
Briefly: flow cytometry, whole blood; cynomolgus B cells.

The target in experiment [8] is T3, Platelets Cynomolgus (cynomolgus monkey, UniProt G7PG38 21-278).
T3 chain: T2 chain
Briefly: flow cytometry, whole blood; cynomolgus platelets.

Positions count from the first letter of the chain named.

B1: Antibody C (antibody, V domains shown)
VH: QVQLVQSGAEVKKPGASVKVSCTASGFNIKDYYVHWVKQAPGQGLEWMGRIDPEDGDSKYAPKFQGKATMTADTSTSTVYMELSSLRSEDTAVYYCTTSYYVGTYGYWGQGTLVTVSS
VL: DIQMTQSPSSLSASVGDRVTITCSASSSVSYMLWFQQKPGKAPKLLIYSTSNLASGVPSRFSGSGSGTDFTLTISSLQPEDFATYYCQQRTFYPYTFGGGTKVEIKR
As a reminder, the EC50 is the concentration giving half of the maximal effect. The molecule B1 displayed an EC50 in experiment [1] of 1.9 nM.

B2: Antibody A (antibody, V domains shown)
VH: EVQLVESGGGLVKPGGSLRLSCAASGFTFSDYGMHWVRQAPGKGLEWVAYISSGNRIIYYADTVKGRFTISRDNAKNSLYLQMNSLRAEDTALYYCARQDGYRYAMDYWAQGTLVTVSS
VL: DIVMTQSPDSLAVSLGERATMSCKSSQSLLNSGNQKNYLTWHQQKPGQPPKLLIYWTSTRESGVPDRFSGSGSGTDFTLTISSLQAEDVAVYYCQNDYTYPLTFGGGTKVEIKR
In turn, B2 had an EC50 in experiment [1] of 1.1 nM.

B3: 20E2 (antibody, V domains shown)
VH: B2 VH with L18R, R19K, G42E, S78T, Y80F, N84T, A88S, A110G, L114S
VL: DIVMTQSPSSLTVTAGEKVTMSCKSSQSLLNSGNQKNYLTWHQQKPGQPPKLLIYWTSTRESGVPDRFTGSGSGTDFTLTISNLQAEDLAVYYCQNDYTYPLTFGAGTKLELK
On to B3, for which the EC50 in experiment [2] worked out at 1.22 nM.

B4: 19B10 (antibody, V domains shown)
VH: EVQLQQSGAELVRPGASVQLSCTASGFNIKDYYVHWVKQRPEKGLEWIGRIDPEDGDTKFAPKFQGKATMTADTSSNTVYLHLSSLTSEDTAVYYCTTSYYVGTYGYWGQGTTLTVSS
VL: QIVLTQSPAIMSASPGEKVTITCSASSSVSYMLWFQQKPGTSPKLWIYSTSNLASGVPARFSGSGSGTSYSLTISRMEAEDAATYYCQQRTFYPYTFGGGTKLEIK
For the molecule B4, the concentration giving a half-maximal response (EC50) in experiment [2] was found to be 0.36 nM; in experiment [3] it was 1.1 nM.

B5: 2H11 (antibody, V domains shown)
VH: B4 VH with Q19K, T58S, F60Y, V79A
VL: B4 VL with S62G
Take B5: in experiment [2], the EC50 worked out at 0.32 nM.

B6: 10F2 (antibody, V domains shown)
VH: B4 VH with Q19K, V34I, F60Y, A61D, V79A
VL: B4 VL with A9T, T20I, S26T, M32I, T68A
As to B6, the EC50 is 0.21 nM in experiment [2] and 1.9 nM in experiment [4].

B7: 4D11 (antibody, V domains shown)
VH: QLQLQESGPGLLKPSETLSLTCTVSGGSISSPGYYGGWIRQPPGKGLEWIGSIYKSGSTYHNPSLKSRVTISVDTSKNQFSLKLSSVTAADTAVYYCTRPVVRYFGWFDPWGQGTLVTVSS
VL: AIQLTQSPSSLSASVGDRVTITCRASQGISSALAWYQQKPGKAPKLLIYDASNLESGVPSRFSGSGSGTDFTLTISSLQPEDFATYYCQQFNSYPTFGQGTKVEIK
For B7, the concentration for a half-maximal effect (EC50) in experiment [5] was 0.3 nM; in experiment [6] it was 0.7 nM; in experiment [7], 0.7 nM; in experiment [8], 1.2 nM.
